In the array DNA melting data of Ke et al.:

assay: melting temperature; melt of duplexes; settings: sodium 0.0675 M; strand 1 µM

Q: For “CGACGTGCGCAATGTGCTG+CAGCACATACGGCACGTCG ((((((((...((((((((+))))))))...))))))))”, which Tm is on record?
A: The Tm was 48.6 °C.

Q: Which Tm does the source give for “CGACGTGCGGTATGTGCTG+CAGCACATAATGCACGTCG ((((((((..(((((((((+)))))))))..))))))))” here?
A: The Tm was 54.6 °C.

Q: With “CGACGTGCAACATGTGCTG+CAGCACATATAGCACGTCG ((((((((.(.((((((((+)))))))).).))))))))” as the substance, how does the Tm read?
A: The Tm was 49.1 °C.

Q: For “CGACGTGCGTTATGTGCTG+CAGCACATTTCGCACGTCG (((((((((..((((((((+))))))))..)))))))))”, which Tm is on record?
A: Its Tm is 54.4 °C.

Q: With “CGACGTGCTATATGTGCTG+CAGCACATATTGCACGTCG ((((((((.((((((((((+)))))))))).))))))))” as the substance, how does the Tm read?
A: Its Tm is 56 °C.

Q: Which Tm does the source give for “CGACGTGCGCAATGTGCTG+CAGCACATTCGGCACGTCG ((((((((..(((((((((+)))))))))..))))))))” here?
A: The Tm was 52.5 °C.

Q: Which Tm does the source give for “CGACGTGCTCAATGTGCTG+CAGCACATCCAGCACGTCG (((((((((..((((((((+))))))))..)))))))))” here?
A: The Tm was 50.5 °C.

Q: Which Tm does the source give for “CGACGTGCTCTATGTGCTG+CAGCACATGCCGCACGTCG ((((((((...((((((((+))))))))...))))))))” here?
A: The Tm was 48.2 °C.

Q: For “CGACGTGCTAGATGTGCTG+CAGCACATGCAGCACGTCG (((((((((..((((((((+))))))))..)))))))))”, which Tm is on record?
A: Its Tm is 53 °C.

Q: For “CGACGTGCCCGATGTGCTG+CAGCACATCTCGCACGTCG ((((((((..(((((((((+)))))))))..))))))))”, which Tm is on record?
A: Its Tm is 51.6 °C.

Q: For “CGACGTGCTAAATGTGCTG+CAGCACATCCGGCACGTCG ((((((((...((((((((+))))))))...))))))))”, which Tm is on record?
A: The Tm was 49.5 °C.

Q: For “CGACGTGCTAGATGTGCTG+CAGCACATATAGCACGTCG ((((((((((.((((((((+)))))))).))))))))))”, which Tm is on record?
A: The Tm was 57.6 °C.

Q: With “CGACGTGCTACATGTGCTG+CAGCACATGCTGCACGTCG ((((((((..(((((((((+)))))))))..))))))))” as the substance, how does the Tm read?
A: Its Tm is 52.8 °C.

Q: Which Tm does the source give for “CGACGTGCCGCATGTGCTG+CAGCACATTGGGCACGTCG (((((((((..((((((((+))))))))..)))))))))” here?
A: Its Tm is 54.4 °C.

Q: For “CGACGTGCGCTATGTGCTG+CAGCACATAGCGCACGTCG (((((((((((((((((((+)))))))))))))))))))”, which Tm is on record?
A: The Tm was 66.4 °C.

Q: With “CGACGTGCCGCATGTGCTG+CAGCACATCTTGCACGTCG ((((((((...((((((((+))))))))...))))))))” as the substance, how does the Tm read?
A: The Tm was 47.4 °C.

Q: With “CGACGTGCTCAATGTGCTG+CAGCACATATCGCACGTCG ((((((((...((((((((+))))))))...))))))))” as the substance, how does the Tm read?
A: The Tm was 47.5 °C.

Q: Which Tm does the source give for “CGACGTGCTGTATGTGCTG+CAGCACATATTGCACGTCG ((((((((..(((((((((+)))))))))..))))))))” here?
A: The Tm was 52.7 °C.

Q: Which Tm does the source give for “CGACGTGCATCATGTGCTG+CAGCACATCTCGCACGTCG ((((((((...((((((((+))))))))...))))))))” here?
A: The Tm was 46.5 °C.

Q: Which Tm does the source give for “CGACGTGCATGATGTGCTG+CAGCACATTGCGCACGTCG ((((((((...((((((((+))))))))...))))))))” here?
A: The Tm was 49.1 °C.

Q: Which Tm does the source give for “CGACGTGCTCCATGTGCTG+CAGCACATGGTGCACGTCG ((((((((.((((((((((+)))))))))).))))))))” here?
A: Its Tm is 58.9 °C.

Q: Which Tm does the source give for “CGACGTGCTGCATGTGCTG+CAGCACATATCGCACGTCG ((((((((...((((((((+))))))))...))))))))” here?
A: The Tm was 48.3 °C.

Q: Which Tm does the source give for “CGACGTGCGAAATGTGCTG+CAGCACATTCGGCACGTCG ((((((((..(((((((((+)))))))))..))))))))” here?
A: Its Tm is 53.7 °C.

Q: For “CGACGTGCCATATGTGCTG+CAGCACATGTGGCACGTCG ((((((((((.((((((((+)))))))).))))))))))”, which Tm is on record?
A: The Tm was 60.3 °C.

Q: With “CGACGTGCAGTATGTGCTG+CAGCACATTTCGCACGTCG ((((((((...((((((((+))))))))...))))))))” as the substance, how does the Tm read?
A: The Tm was 49.7 °C.

Q: Which Tm does the source give for “CGACGTGCACCATGTGCTG+CAGCACATCTCGCACGTCG ((((((((...((((((((+))))))))...))))))))” here?
A: Its Tm is 41.8 °C.

Q: For “CGACGTGCGTTATGTGCTG+CAGCACATGTCGCACGTCG (((((((((..((((((((+))))))))..)))))))))”, which Tm is on record?
A: The Tm was 55 °C.

Q: For “CGACGTGCGGTATGTGCTG+CAGCACATTCCGCACGTCG ((((((((((.((((((((+)))))))).))))))))))”, which Tm is on record?
A: Its Tm is 60 °C.
